According to patent US20190040149A1:
pKd: −log10 of the molar value.

What was measured:
cyno PD-1_Fc (cyno) = assay: bio-layer interferometry (ForteBio), Fab in solution, cyno PD-1_Fc on sensor tip
[1] = molecular target: human PD-1 on cells (CHO cells; T cells in the mixed lymphocyte reaction) (human) (UniProt Q15116); assay: cell-based or functional assay
[2] = molecular target: human PD-1 on cells (CHO cells; T cells in the mixed lymphocyte reaction) (human) (UniProt Q15116); assay: flow cytometry, remaining PD-L2-FITC signal after 100 nM IgG; competitor PD-L2-FITC

Chain of human PD-1 on cells (CHO cells; T cells in the mixed lymphocyte reaction) (human) (Q15116 25-288 limits assumed): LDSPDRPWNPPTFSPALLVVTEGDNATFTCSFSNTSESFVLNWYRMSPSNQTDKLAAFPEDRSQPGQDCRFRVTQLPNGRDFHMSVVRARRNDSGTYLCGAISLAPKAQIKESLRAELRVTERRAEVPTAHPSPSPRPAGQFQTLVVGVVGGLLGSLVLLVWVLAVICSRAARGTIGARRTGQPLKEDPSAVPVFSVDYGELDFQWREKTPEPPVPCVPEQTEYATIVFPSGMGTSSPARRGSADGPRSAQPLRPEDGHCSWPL
Chain of Fab of pembrolizumab (VH): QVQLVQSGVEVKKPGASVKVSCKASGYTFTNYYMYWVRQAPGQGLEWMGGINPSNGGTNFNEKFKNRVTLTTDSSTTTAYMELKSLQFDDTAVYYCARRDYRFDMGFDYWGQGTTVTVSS
Chain of Fab of pembrolizumab (VL): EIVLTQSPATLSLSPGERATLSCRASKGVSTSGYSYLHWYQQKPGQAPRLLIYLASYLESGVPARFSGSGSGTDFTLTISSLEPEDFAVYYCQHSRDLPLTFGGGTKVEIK

| Substance | pKd (cyno PD-1_Fc (cyno)) | IFNγ in supernatant, 0.01 nM IgG (IgG control, baseline of the fold change) [1] [pg/mL] | IFNγ in supernatant, 0.1 nM IgG (IgG control, baseline of the fold change) [1] [pg/mL] | IFNγ in supernatant, 1 nM IgG (IgG control, baseline of the fold change) [1] [pg/mL] | IFNγ in supernatant, 10 nM IgG (IgG control, baseline of the fold change) [1] [pg/mL] | IFNγ in supernatant, 100 nM IgG (IgG control, baseline of the fold change) [1] [pg/mL] | IL-2 in supernatant, 0.01 nM IgG (IgG control, baseline of the fold change) [1] [pg/mL] | IL-2 in supernatant, 0.1 nM IgG (IgG control, baseline of the fold change) [1] [pg/mL] | IL-2 in supernatant, 1 nM IgG (IgG control, baseline of the fold change) [1] [pg/mL] | IL-2 in supernatant, 10 nM IgG (IgG control, baseline of the fold change) [1] [pg/mL] | IL-2 in supernatant, 100 nM IgG (IgG control, baseline of the fold change) [1] [pg/mL] | MFI (PD-L2-FITC) [2] [MFI] |
| --- | --- | --- | --- | --- | --- | --- | --- | --- | --- | --- | --- | --- |
| Fab of nivolumab | 8.92 | – | – | – | – | – | – | – | – | – | – | – |
| Fab of pembrolizumab | 9.33 | – | – | – | – | – | – | – | – | – | – | – |
| IgG Control (antibody) | – | 14900 | 11000 | 11600 | 13500 | 14900 | 515 | 509 | 500 | 522 | 619 | 183000 |
